B1: Tfb3 (natural protein, S. cerevisiae, UniProt Q03290 1-321, looked up)
chain: MLMDEYEENKDMCPICKTDRYLSPDVKFLVNPECYHRICESCVDRIFSLGPAQCPYKGCDKILRKNKFKTQIFDDVEVEKEVDIRKRVFNVFNKTIDDFNGDLVEYNKYLEEVEDIIYKLDHGIDVAKTEEKLRTYEELNKQLIMNNLERSRTEIESFEQRQKFEKEMKLKKRLLERQIEEEERMNKEWTKKEIVNRLSTTTQDINETIEGVKNTVKLKKSSARRKLEELNRVLKNNPYFNSNVNVQNSRLKDAVPFTPFNGDREAHPRFTLKGSVYNDPFIKDLEHRKEFIASGFNTNYAYERVLTEAFMGLGCVISEEL
B4: Rpb4 (Pol II stalk subunit) (natural protein, S. cerevisiae)
chain: MNVSTSTFQTRRRRLKKVEEEENAATLQLGQEFQLKQINHQGEEEELIALNLSEARLVIKEALVERRRAFKRSQKKHKKKHLKHENANDETTAVEDEDDDLDEDDVNADDDDFMHSETREKELESIDVLLEQTTGGNNKDLKNTMQYLTNFSRFRDQETVGAVIQLLKSTGLHPFEVAQLGSLACDTADEAKTLIPSLNNKISDDELERILKELSNLETLY

Assays:
[1] = molecular target: T1, TFIIE (Tfa1 and Tfa2) (S. cerevisiae, UniProt P36100 1-482; P36145 1-328); assay: cryo-EM structure
T1 sequence (looked up) 1: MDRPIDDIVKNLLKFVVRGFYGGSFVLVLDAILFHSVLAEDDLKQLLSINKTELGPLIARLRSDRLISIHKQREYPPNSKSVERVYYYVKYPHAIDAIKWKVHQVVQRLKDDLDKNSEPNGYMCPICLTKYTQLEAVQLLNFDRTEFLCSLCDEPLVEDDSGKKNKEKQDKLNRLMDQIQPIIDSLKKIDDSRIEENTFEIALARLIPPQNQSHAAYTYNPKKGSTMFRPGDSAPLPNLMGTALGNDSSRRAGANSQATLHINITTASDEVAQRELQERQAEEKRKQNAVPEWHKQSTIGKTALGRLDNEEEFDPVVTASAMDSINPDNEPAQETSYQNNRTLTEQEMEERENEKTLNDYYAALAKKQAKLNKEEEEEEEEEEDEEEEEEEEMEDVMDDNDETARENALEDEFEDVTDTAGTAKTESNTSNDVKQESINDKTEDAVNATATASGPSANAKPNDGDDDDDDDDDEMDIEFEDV
T1 sequence (looked up) 2: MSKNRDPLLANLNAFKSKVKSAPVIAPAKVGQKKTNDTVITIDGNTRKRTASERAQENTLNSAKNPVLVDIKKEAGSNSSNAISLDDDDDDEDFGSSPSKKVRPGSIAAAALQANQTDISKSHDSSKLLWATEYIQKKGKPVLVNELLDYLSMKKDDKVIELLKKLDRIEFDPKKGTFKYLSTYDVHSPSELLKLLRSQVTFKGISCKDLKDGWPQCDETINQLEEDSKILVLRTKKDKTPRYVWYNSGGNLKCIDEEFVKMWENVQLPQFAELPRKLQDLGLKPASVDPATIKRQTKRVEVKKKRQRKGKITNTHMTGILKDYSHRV

[2] = molecular target: B1; assay: cryo-EM structure
[3] = molecular target: B4; assay: cryo-EM structure
[4] = molecular target: T2, Med8 (S. cerevisiae, UniProt P38304 1-223); assay: cryo-EM structure
T2 sequence (looked up): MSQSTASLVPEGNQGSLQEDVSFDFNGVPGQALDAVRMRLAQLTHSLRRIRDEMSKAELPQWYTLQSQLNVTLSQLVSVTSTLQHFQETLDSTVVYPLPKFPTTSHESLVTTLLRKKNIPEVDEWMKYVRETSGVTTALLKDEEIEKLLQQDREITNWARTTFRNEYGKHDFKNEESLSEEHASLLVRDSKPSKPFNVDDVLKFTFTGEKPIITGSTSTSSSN

[5] = molecular target: T3, Tfb2 (S. cerevisiae, UniProt Q02939 1-513); assay: cross-linking
T3 sequence (looked up): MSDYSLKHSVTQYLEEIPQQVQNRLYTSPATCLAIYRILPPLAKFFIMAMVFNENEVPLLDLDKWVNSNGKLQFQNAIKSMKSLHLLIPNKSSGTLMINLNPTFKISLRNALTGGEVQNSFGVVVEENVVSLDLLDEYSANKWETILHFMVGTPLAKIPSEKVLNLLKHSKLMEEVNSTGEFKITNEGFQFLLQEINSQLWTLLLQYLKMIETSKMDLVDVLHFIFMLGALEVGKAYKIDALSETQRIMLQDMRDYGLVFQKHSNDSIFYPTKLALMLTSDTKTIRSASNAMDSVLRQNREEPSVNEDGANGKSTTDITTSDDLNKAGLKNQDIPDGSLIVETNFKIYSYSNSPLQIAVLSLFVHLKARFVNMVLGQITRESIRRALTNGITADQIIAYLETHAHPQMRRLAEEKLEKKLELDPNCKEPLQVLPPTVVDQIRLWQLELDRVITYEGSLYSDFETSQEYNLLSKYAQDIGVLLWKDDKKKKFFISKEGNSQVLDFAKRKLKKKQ

[6] = molecular target: T4, Ssl2 (S. cerevisiae, UniProt Q00578 1-843); assay: cryo-EM structure
T4 sequence (looked up): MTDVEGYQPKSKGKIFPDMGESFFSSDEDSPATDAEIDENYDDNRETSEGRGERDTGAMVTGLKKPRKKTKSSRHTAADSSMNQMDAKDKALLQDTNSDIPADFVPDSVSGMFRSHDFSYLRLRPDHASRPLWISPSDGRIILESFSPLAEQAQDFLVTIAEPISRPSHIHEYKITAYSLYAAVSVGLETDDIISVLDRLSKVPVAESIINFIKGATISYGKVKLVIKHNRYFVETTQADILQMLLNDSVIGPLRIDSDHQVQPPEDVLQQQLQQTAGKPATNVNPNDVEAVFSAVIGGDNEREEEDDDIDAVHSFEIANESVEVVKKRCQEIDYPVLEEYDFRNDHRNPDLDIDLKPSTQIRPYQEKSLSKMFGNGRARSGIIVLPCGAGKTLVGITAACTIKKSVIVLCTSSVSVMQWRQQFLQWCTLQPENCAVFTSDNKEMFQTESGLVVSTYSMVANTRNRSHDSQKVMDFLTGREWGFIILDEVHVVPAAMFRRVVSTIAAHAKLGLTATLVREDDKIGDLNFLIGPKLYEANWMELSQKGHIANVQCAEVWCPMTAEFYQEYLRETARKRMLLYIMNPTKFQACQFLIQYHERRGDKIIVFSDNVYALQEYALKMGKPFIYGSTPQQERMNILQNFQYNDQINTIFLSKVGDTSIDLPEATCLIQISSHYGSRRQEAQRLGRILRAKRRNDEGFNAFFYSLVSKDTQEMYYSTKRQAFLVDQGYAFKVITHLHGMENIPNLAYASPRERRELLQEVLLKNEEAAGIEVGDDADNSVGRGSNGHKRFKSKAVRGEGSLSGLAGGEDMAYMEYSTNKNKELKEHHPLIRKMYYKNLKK

[7] = molecular target: T5, Tfb1 (S. cerevisiae, UniProt P32776 1-642); assay: cryo-EM structure
T5 sequence (looked up): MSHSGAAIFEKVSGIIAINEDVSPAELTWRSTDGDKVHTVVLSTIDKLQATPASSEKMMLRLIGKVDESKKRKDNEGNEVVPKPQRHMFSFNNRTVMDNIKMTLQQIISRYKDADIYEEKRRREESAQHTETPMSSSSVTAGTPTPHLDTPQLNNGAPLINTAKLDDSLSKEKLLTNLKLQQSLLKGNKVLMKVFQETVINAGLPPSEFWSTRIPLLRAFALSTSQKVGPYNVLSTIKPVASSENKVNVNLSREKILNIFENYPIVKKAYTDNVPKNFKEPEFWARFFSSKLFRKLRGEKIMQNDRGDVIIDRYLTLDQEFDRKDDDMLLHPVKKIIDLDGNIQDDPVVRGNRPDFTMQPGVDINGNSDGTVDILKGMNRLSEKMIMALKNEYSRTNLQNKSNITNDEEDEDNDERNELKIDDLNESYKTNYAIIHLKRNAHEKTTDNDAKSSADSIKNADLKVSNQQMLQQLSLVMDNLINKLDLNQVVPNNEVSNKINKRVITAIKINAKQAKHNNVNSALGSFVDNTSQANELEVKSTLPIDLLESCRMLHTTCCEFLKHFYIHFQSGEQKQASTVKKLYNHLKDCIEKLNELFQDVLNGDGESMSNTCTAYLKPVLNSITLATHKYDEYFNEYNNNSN

B1
binding result [1]: binds

B2: Rpb7 (Pol II stalk subunit) (natural protein, S. cerevisiae, UniProt P34087 1-171, looked up)
chain: MFFIKDLSLNITLHPSFFGPRMKQYLKTKLLEEVEGSCTGKFGYILCVLDYDNIDIQRGRILPTDGSAEFNVKYRAVVFKPFKGEVVDGTVVSCSQHGFEVQVGPMKVFVTKHLMPQDLTFNAGSNPPSYQSSEDVITIKSRIRVKIEGCISQVSSIHAIGSIKEDYLGAI
binding result [2]: binds

B3: Med22 (natural protein, S. cerevisiae, UniProt P32570 1-121, looked up)
chain: MSNQALYEKLEQTRTILSVKLAELINMTTIADRNDDDEGSFAQENSELAVATTSVMMVNNQTMQLIKNVQDLLILTRSIKEKWLLNQIPVTEHSKVTRFDEKQIEELLDNCIETFVAEKTT
binding result [3]: binds

B4
binding result [4]: binds

B5: Tfa1 (TFIIE subunit) (natural protein, S. cerevisiae, UniProt P36100 1-482, looked up)
chain: MDRPIDDIVKNLLKFVVRGFYGGSFVLVLDAILFHSVLAEDDLKQLLSINKTELGPLIARLRSDRLISIHKQREYPPNSKSVERVYYYVKYPHAIDAIKWKVHQVVQRLKDDLDKNSEPNGYMCPICLTKYTQLEAVQLLNFDRTEFLCSLCDEPLVEDDSGKKNKEKQDKLNRLMDQIQPIIDSLKKIDDSRIEENTFEIALARLIPPQNQSHAAYTYNPKKGSTMFRPGDSAPLPNLMGTALGNDSSRRAGANSQATLHINITTASDEVAQRELQERQAEEKRKQNAVPEWHKQSTIGKTALGRLDNEEEFDPVVTASAMDSINPDNEPAQETSYQNNRTLTEQEMEERENEKTLNDYYAALAKKQAKLNKEEEEEEEEEEDEEEEEEEEMEDVMDDNDETARENALEDEFEDVTDTAGTAKTESNTSNDVKQESINDKTEDAVNATATASGPSANAKPNDGDDDDDDDDDEMDIEFEDV
binding result [5]: binds
binding result [6]: binds
binding result [7]: binds

From paper PMC6078178 (Nature, 2017)
